Drawing on publication PMC9798103, this text covers Kd for 1 substance.

The target of this assay is F-actin (polymerised from Ca2+-ATP G-actin of rabbit skeletal muscle) (rabbit) (UniProt P68135). In words: co-sedimentation.

pKd: −log10 of the molar value.

On to “N-terminal half of RHGF-1 without the PDZ domain (RHGF-1-N-ΔPDZ) (domain or fragment)”, for which the negative-log Kd (pKd) was 4.85.

In general, pKd refers to −log10 of the Kd, conventionally taken in molar units. Read a high pKd as a low Kd.
